# Patent publication US20260250370
# System: TGFβ1 C4S Small Latent Complex (SLC)
# Sequence (chain, as listed by the source): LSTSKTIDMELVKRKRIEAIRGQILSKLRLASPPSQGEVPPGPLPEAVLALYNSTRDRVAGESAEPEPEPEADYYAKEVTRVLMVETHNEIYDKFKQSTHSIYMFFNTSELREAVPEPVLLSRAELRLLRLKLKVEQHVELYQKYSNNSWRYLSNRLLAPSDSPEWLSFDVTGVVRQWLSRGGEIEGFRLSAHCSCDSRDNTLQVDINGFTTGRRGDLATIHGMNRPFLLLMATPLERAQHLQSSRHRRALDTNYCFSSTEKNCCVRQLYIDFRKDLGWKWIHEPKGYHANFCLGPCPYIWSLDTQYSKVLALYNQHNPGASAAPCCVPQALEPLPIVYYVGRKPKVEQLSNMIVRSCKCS
substance,measurement,value
kallikrein,kallikrein digestion of LAP (gel),LAP can be cleaved by kallikrein into a R^58 LAP-D fragment and a L^59 LAP-D fragment
